Patent publication US20160340421A1 (Regeneron, published 2016)

Assays:
[1] = target: T1, Human GDF8 homodimer (mature human Growth and Differentiation Factor-8) (human, UniProt O14793 267-375); test: SPR Biacore 3000, buffer without BSA
T1 construct: also called hGDF8; myostatin
T1 sequence: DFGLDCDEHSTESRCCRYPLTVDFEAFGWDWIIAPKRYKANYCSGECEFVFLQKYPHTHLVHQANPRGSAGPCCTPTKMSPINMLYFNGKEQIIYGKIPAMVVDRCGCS

[2] = target: T1, Human GDF8 homodimer (mature human …); test: cell-based or functional assay
[3] = target: T1, Human GDF8 homodimer (mature human …); test: SPR, antibody captured, buffer without BSA
Method: Equilibrium dissociation constants (KD values) for antigen binding to selected antibodies were determined by surface kinetics using a real-time biosensor surface plasmon resonance assay (BIACORE™ 2000). Each selected antibody was captured on either a goat anti-mouse IgG polyclonal antibody surface or a goat anti-hFc polyclonal antibody (Jackson Immuno Research Lab) surface created through direct chemical coupling to a BIACORE™ chip to form a captured antibody surface. Human GDF8 homodimer, hGDF11 homodimer, or hGDF5 homodimer at 25 nM was injected over the captured antibody surfaces, and antigen-antibody binding and dissociation were monitored in real time at room temperature. Kinetic analysis was performed to calculate KD, dissociation rate constants (kd), association rate constants (ka) and half-life of antigen/antibody complex dissociation (Table 2).

[4] = target: T2, B48 chimera: GDF8.1-47.BMP2.48-77.GDF8.73-109; test: Western blot of CHO.hFurin supernatant
T2 construct: CHO.hFurin supernatant
T2 chain: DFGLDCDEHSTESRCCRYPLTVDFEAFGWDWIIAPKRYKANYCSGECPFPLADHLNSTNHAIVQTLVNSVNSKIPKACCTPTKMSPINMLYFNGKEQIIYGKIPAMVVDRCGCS
Method: (§1) The various chimeric GDF8 pro-proteins were transiently transfected in an engineered stable CHO.hFurin cell line. A similar Western Blot analysis as described above was used to detect the binding of various anti-hGDF8 antibodies to each of the chimeric GDF8. Briefly, […] of CHO supernatant were loaded onto each lane of an SDS-PAGE (non-reducing or reducing) gel and electroblotted onto a PVDF membrane. The membrane was then incubated with an anti-GDF8 antibody at 2 μg/ml followed by exposure to the appropriate secondary antibody conjugated to HRP.

[5] = target: T3, GDF8/TGFβ[48-72] chimera (T48): GDF8.1-47.TGFβ1.49-76.GDF8.73-109 (human GDF8 with human TGFβ-1 sequence); test: Western blot of CHO.hFurin supernatant
T3 construct: used as CHO conditioned medium / supernatant; also called GDF8/TGFβ-1 chimeric construct
T3 chain: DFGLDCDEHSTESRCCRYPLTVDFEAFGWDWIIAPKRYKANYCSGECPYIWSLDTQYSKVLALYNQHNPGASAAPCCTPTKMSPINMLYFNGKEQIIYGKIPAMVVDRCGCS
Method: as §1

Kd [1]: 0.071 nM
T1/2 [1]: 139 min
IC50, luciferase bioassay, 0.5 nM GDF8 [2]: 3.11 nM
IC50, luciferase bioassay, 1 nM GDF8 [2]: 5.55 nM
Kd [3]: 0.016 nM
T1/2 [3]: 840 min
binding result [4]: no binding (tested: 2 µg/ml)
binding result [5]: no binding (tested: 2 µg/ml)
B1: 8D12 (antibody, V domains shown)
VH: QVQLVESGGGVVQPGRSLRLSCAASGFTFSRYGIHWVRQAPGKGLEWVAVISYDGSDEYYVDSVKGRFSISRDNSKNTLYLQMNSLRPADSAVYYCVKGDLELGFDYWGQGTLVTVSS
VL: DIVMTQAAPSIPVIPGESVSMSCRSSKSLLYSNGHTYVYWFVQRPGQSPQLLIYRMSNLASGVPDRFSGSGSGTAFTLRISRVEAEDVGVYYCMQNLEFPLTFGAGTKLELK
notes: also called antibody 8D12; 8D12 Antibody
